The nanobody polyreactivity screen of Harvey et al. (2022)

Assay: yeast display, Sf9 membrane polyspecificity reagent, FACS + sequencing; frameworks hold sequencing errors
How it was run: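 A nanobody's polyreactivity label depends on the gate it was sorted from. Yeast display cells were stained with 10% biotinylated, detergent-solubilized Sf9 membrane reagent for 1 hour at 4 °C, enriched on streptavidin microbeads and sorted by FACS. The low and high (top ~1%) gates were set on anti-HA fluorescence for expression and streptavidin fluorescence for reagent binding.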

| Sequence | polyreactivity (PSR sort gate) |
| --- | --- |
| QVQLVESGGGLVQAGGSLRLSCAASGRIFYINAMGWYRQAPGKERELVAAITSNGGSTYYADSVKGRFTISRDNAKNTVYLQMNSLKPEDTSVYYCAVSPRVPFRKPVFTPYNMYYWGQGTQVTVSS | high polyreactivity |
| QVQLVESGGGLVQAGGSLRLSCAASGRIFYIYAMGWYRQAPGKERELVATITGSGGGTYYADSVKGRFTISRDNAKNTVYLQMNSLKPEDTAVYYCAAQVLTDPDNYWGQGTQVTVSS | low polyreactivity |
| QVQLVESGGGLVQAGGSLRLSCAASGRIFYKYAMGWYRQAPGKERELVAAISSGGNTNYADSVKGRFTISRDNAKNTVYLQMNSLKPEDTAVYYCNAKRAYYRGYYPDNYWGQGTQVTVSS | high polyreactivity |
| QVQLVESGGGLVQAGGSLRLSCAASGRIFYKYAMGWYRQAPGKERELVAVINRGGTTYYADSVKGRFTISRDNGKNTVYLQMNSLKPDDTAVYYCNTVADYRRFGYWGQGTQVTVSS | high polyreactivity |
| QVQLVESGGGLVQAGGSLRLSCAASGRIFYKYVMGWYRQAPGKERELVAAINRSGGTTYYADSVKGRFTISRDNAKNTVYLQMNSLKPEDTAVYYCNATLPDYWPYYYYQGGDDYWGQGTQVTVSS | low polyreactivity |
| QVQLVESGGGLVQAGGSLRLSCAASGRIFYLNVMGWYRQAPGKERELVAAITRRDVTTYADSVKGRFTISRDNAKNTVYLQMNSLKPEDTAVYYCNAEYVPYYEYESWGQGTQVTVSS | low polyreactivity |
| QVQLVESGGGLVQAGGSLRLSCAASGRIFYLYAMGWYRQAPGKERELVAGITSGGRTNYADSVKGRFTISRDNAKNTVYLQMNSLKPEDTAVYYCAAFYWGRYTGYYWGQGTQVTVSS | high polyreactivity |
| QVQLVESGGGLVQAGGSLRLSCAASGRIFYLYAMGWYRQAPGKERELVAGITSGGRTNYADSVKGRFTISRDNAKNTVYLQMNSLKPEDTAVYYCAAYYWGRYTGYYWGQGTQVTVSS | high polyreactivity |
| QVQLVESGGGLVQAGGSLRLSCAASGRIFYLYAMGWYRQAPGKERELVATINTSGGITYYADSVKGRFTISRDNAKNTVYLQMNSLKPEDTAVYYCNADWEWQYFYFRPGGYWGQGTQVTVSS | low polyreactivity |
| QVQLVESGGGLVQAGGSLRLSCAASGRIFYLYAMGWYRQATGKERELVAAITWSGGSTTYADSVKGRFTISRDTAKNTVYLQMNSLNPEDTAVYYCNADGWIFPSFSPMDYWGQGTQVTVSS | low polyreactivity |
| QVQLVESGGGLVQAGGSLRLSCAASGRIFYNNAMGWYRQAPGKERELVAGISRSSGRTYYADSVKGRFTISRDIAKNTVYLQMNSLKPEDTAVYYCNTVSWPLSSKYYYWGQGTQVTVSS | high polyreactivity |
| QVQLVESGGGLVQAGGSLRLSCAASGRIFYNYAMGWSRQAPGKERELVAANSGSGGSTYYADSVKGRFTISRDSAMNTVYFQMNSLKPEDTAVYYCSTSGPQYYSRNFDYWGQGTQVTVSS | low polyreactivity |
| QVQLVESGGGLVQAGGSLRLSCAASGRIFYNYAMGWYRPAPGKDRVLVAAISVSGGSTYYADSEKGRFTISRDNAKNTVYLQMNSLKPEDTAVYYCAARRDRGYTREYWGQGTQVTVST | high polyreactivity |
| QVQLVESGGGLVQAGGSLRLSCAASGRIFYNYAMGWYRQAPGKERELVAAISGSGGSTYYADSVKGRFTISRDNAKNTVYLQMNSLTPEDTAVYYCSTSGPQYYSRNFDYWGQGTQVTVSS | low polyreactivity |
| QVQLVESGGGLVQAGGSLRLSCAASGRIFYNYAMGWYRQAPGKERELVAAISGSGGSTYYADSVKGRFTISRDNAMNTVYLQMNSLKPEDTAVYYCSTSGPQYYSRNFDYWGQGTQVTVSS | low polyreactivity |
| QVQLVESGGGLVQAGGSLRLSCAASGRIFYPNVMGWYRQAPGKERELVAAISASGGRTYYADSVKGRFTISRDNAKNTVYLQMNSLKPEDTAVYYCAADTVPSTRSWDTRYWEYEYWGQGTQVTVSS | low polyreactivity |
| QVQLVESGGGLVQAGGSLRLSCAASGRIFYPYAMGWYRQAPGKERELVAAISWSTGNTYYADSVKGRFTISRDNAKNTVYLQMNSLKPEDTAVYYCNARLAPVRRYWYSGYDYWGQGTQVTVSS | high polyreactivity |
| QVQLVESGGGLVQAGGSLRLSCAASGRIFYPYAMGWYRQAPGKEWELVAAINRSAGSTSYADSVKGRFTISRDNAKNTVYLQMKSLKPEDTAVYYCAAQGRWHRHFDYWGQGTQVNVSS | high polyreactivity |
| QVQLVESGGGLVQAGGSLRLSCAASGRIFYPYSMGWYRQAPGKERELVASINYRGGSTYYADSVNGRFTISRDNAKNTVYLQMNSLKPEDTAVYYCNAVRGFYRYSSSMGYWGQGTQVTVSS | high polyreactivity |
| QVQLVESGGGLVQAGGSLRLSCAASGRIFYPYVMGWYRQAPGKERELVAAISASGGRTYYADSVKGRFTISRDNAKNTVYLQMNSLKPEDTAVYYCAAQGWRYYRTVVPMDYWGQGTQVTVSS | low polyreactivity |
| QVQLVESGGGLVQAGGSLRLSCAASGRIFYPYVMGWYRQAPGKERELVAAISDSTGSTYYADSVKGRFTISRDNAKNTVYLQMNSLKPEDTAVYYCAAGWFYATYWRFYYWGQGTQVTVSS | low polyreactivity |
| QVQLVESGGGLVQAGGSLRLSCAASGRIFYQNAMGWYRQAPGKERELVADISSGGSTYYADSVKGRFTISRDNAKNTVYLQMNSLKPEDTAVYYCAAEGQLFDLYDYWGQGTQVTVSS | low polyreactivity |

| Sequence | polyreactivity (PSR sort gate) |
| --- | --- |
| QVQLVESGGGLVQAGGSLRLSCAASGRIFYRNAMGWYRPAPGKERELVAAISGSGGSTSYADSVKGRFTISRDNAKNTVYLQMNSLKPEDTAVYYCAAYKLYWGQGTQVTVSS | high polyreactivity |
| QVQLVESGGGLVQAGGSLRLSCAASGRIFYRNAMGWYRQAPGKERELVAAISSSTGSTYYADSVKGRFTISRDNAKNTVYLQMNSLKPEDTAVYYCNTARNRARYYYWGQGTQVTVSS | high polyreactivity |
| QVQLVESGGGLVQAGGSLRLSCAASGRIFYRNAMGWYRQAPGKERELVAAITIGTNTYYADSVKGRFTISRDNAKITVYLQMNSLKPEDTAVYYCAVAVFLYTGGVDYWGQGTQVTVSS | low polyreactivity |
| QVQLVESGGGLVQAGGSLRLSCAASGRIFYRYAMGWYIQAPAKERELFAAITGSGGSTYYADSVKGRFTISRDNAKNTVYFQMNSLKPEDTAVYYCNAVERSAFRGVRFDYDYWGQGTQVTLSS | high polyreactivity |
| QVQLVESGGGLVQAGGSLRLSCAASGRIFYRYAMGWYRQAPGKERELVAGITRGGSTYYADSVKGRFTISRDNAKNTVYLQMNSLKPEDTAVYYCNVRWSPAGTGLLDFWGQGSQVTVSS | high polyreactivity |
| QVQLVESGGGLVQAGGSLRLSCAASGRIFYRYAMGWYRQAPGKERELVASISGSGGRTYYADSVKGRFTISRDNAKNTVYLQMNSLKPEDTAVYYCAARIRPSYDWGQGTQVTVSS | high polyreactivity |
| QVQLVESGGGLVQAGGSLRLSCAASGRIFYRYAMGWYRQAPWKEWELVADISSGTSTNYADSVKGRFTLSRDNAKNTVDLQMNSLKPEDTAVYYCAADEVRSAWRCSSPPDYDHWGQGTQVTVSS | low polyreactivity |
| QVQLVESGGGLVQAGGSLRLSCAASGRIFYSNAMGWYRQAPGKERELVAAISWSTGSTYYADSVKGRFTISRDHAKNTVYLQMNSLKPEDTAVYYCYKDDAQTRSFASTWYDYWGQGTQVTVSS | high polyreactivity |
| QVQLVESGGGLVQAGGSLRLSCAASGRIFYSNAMGWYRQAPGKERELVAAITRSGGGTYYADSVKGRFTISRDNAKNTVYLQMNSLKPEDTAVYYCARPAFFRSLSTSDDYWGQGTQVTVSS | high polyreactivity |
| QVQLVESGGGLVQAGGSLRLSCAASGRIFYSNAMGWYRQAPGKERELVATISTGGSTYADSVKGRFTISRDNAKNTVYLQMNSLKPEETAVYYCAVDEWRWRVGAVAYYYWGQGTQVTVSS | low polyreactivity |
| QVQLVESGGGLVQAGGSLRLSCAASGRIFYSNTMGWYRQAPGKERELVARIDTGGGSTYADSVKGRFTISRDNAKNTVYLQMNSLKPEDTAVYYCAALKFEAWAGEDYWGQGTQVTVSS | low polyreactivity |
| QVQLVESGGGLVQAGGSLRLSCAASGRIFYSNTMGWYRQAPGKERELVARIDTGGGSTYADSVKGRFTISRDNAKNTVYLQMNSLKPEDTAVYYCAKTIAVNTWYYYWGQGTQVTVSS | low polyreactivity |
| QVQLVESGGGLVQAGGSLRLSCAASGRIFYSNTMGWYRQAPGKERELVARIDTGGGSTYADSVKGRFTISRDNAKNTVYLQMNSLKPEDTAVYYCNKKGRWRSWGSTSLVSMDYWGQGTQVTVSS | low polyreactivity |
| QVQLVESGGGLVQAGGSLRLSCAASGRIFYSNVMGWYRQAPGKERELVAAISGRTGGTYYADSVKGRFTISRDNAKNTVYLQMNSLIPEDTAVYYCAARVIYYYGSGPYDYWGQGTQVTVSS | low polyreactivity |
| QVQLVESGGGLVQAGGSLRLSCAASGRIFYSYAMAWYRQAPGKERELVAAISSRTGSTYYADSVKGRFTISRDNAKITVYLQMNSLIPEDTAVYYCAARKKYRFDYWGQGTQVTVSS | high polyreactivity |
| QVQLVESGGGLVQAGGSLRLSCAASGRIFYSYAMGWYRQAPGKERELVAAINSGDRTNYADSVKGRFTISRDNAKNTVYLQMNSLKPEDTAVYYCATDDYPWRRHPWYAGYDSWGQGTQVTVSS | low polyreactivity |
| QVQLVESGGGLVQAGGSLRLSCAASGRIFYSYAMGWYRQAPGKERELVAAIRSTGSTNYADSVKGRFTISRDNAKNTVYLQMNSLKPEDTAVYYCAARTSYRSSLYGYWGQGTQVTVSS | high polyreactivity |
| QVQLVESGGGLVQAGGSLRLSCAASGRIFYSYAMGWYRQAPGKERELVAGINWRGSNTYYADSVKGRFTISRDNAKNTVYLQINSLKPEDTAVYYCKAGRRQDYRYNYWGQGTQVTVSS | high polyreactivity |
| QVQLVESGGGLVQAGGSLRLSCAASGRIFYSYAMGWYRQAPGKERELVARITRGSSTYYADSVKGRFTISRDNAKNTVYLQMNSLKPEDTAVYYCAAAVYFQVAFAYYYWGQGTQVTVSS | low polyreactivity |
| QVQLVESGGGLVQAGGSLRLSCAASGRIFYSYAMGWYRQAPGKERELVATISRRGGSTYYADSVKGRFTISRDNAKNTVYLQMNSLKPEDTAVYYCNKGIPTRSVRSYDYWGQGTQVTVSS | high polyreactivity |
| QVQLVESGGGLVQAGGSLRLSCAASGRIFYTNAMGWYRQAPGKERELVAGITGSGDSTYYADSVKGRFTISRDNAKNTVYLQMNSLKPEDTAVYYCAARWRYVLMDYWGQGTQVTVSS | low polyreactivity |
